# In IntAct's records for PubMed 20042240:
# B1: Complement factor H-related protein 4 (Homo sapiens), Q92496-1 (parent)
# chain: MLLLINVILTLWVSCANGQEVKPCDFPEIQHGGLYYKSLRRLYFPAAAGQSYSYYCDQNFVTPSGSYWDYIHCTQDGWSPTVPCLRTCSKSDVEIENGFISESSSIYILNEETQYNCKPGYATAEGNSSGSITCLQNGWSTQPICIKFCDMPVFENSRAKSNGMWFKLHDTLDYECYDGYESSYGNTTDSIVCGEDGWSHLPTCYNSSENCGPPPPISNGDTTSFPQKVYLPWSRVEYQCQSYYELQGSKYVTCSNGDWSEPPRCISMKPCEFPEIQHGHLYYENTRRPYFPVATGQSYSYYCDQNFVTPSGSYWDYIHCTQDGWLPTVPCLRTCSKSDIEIENGFISESSSIYILNKEIQYKCKPGYATADGNSSGSITCLQNGWSAQPICIKFCDMPVFENSRAKSNGMRFKLHDTLDYECYDGYEISYGNTTGSIVCGEDGWSHFPTCYNSSEKCGPPPPISNGDTTSFLLKVYVPQSRVEYQCQSYYELQGSNYVTCSNGEWSEPPRCIHPCIITEENMNKNNIQLKGKSDIKYYAKTGDTIEFMCKLGYNANTSVLSFQAVCREGIVEYPRCE
# partner: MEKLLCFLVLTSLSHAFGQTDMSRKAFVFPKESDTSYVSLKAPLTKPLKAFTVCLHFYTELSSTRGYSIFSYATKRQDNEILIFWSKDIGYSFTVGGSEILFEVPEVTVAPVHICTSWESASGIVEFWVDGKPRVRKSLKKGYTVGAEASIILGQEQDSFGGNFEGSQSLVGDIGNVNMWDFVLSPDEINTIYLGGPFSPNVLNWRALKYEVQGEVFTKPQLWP
# B2: Complement factor H (Homo sapiens), P08603 (parent)
# chain: MRLLAKIICLMLWAICVAEDCNELPPRRNTEILTGSWSDQTYPEGTQAIYKCRPGYRSLGNVIMVCRKGEWVALNPLRKCQKRPCGHPGDTPFGTFTLTGGNVFEYGVKAVYTCNEGYQLLGEINYRECDTDGWTNDIPICEVVKCLPVTAPENGKIVSSAMEPDREYHFGQAVRFVCNSGYKIEGDEEMHCSDDGFWSKEKPKCVEISCKSPDVINGSPISQKIIYKENERFQYKCNMGYEYSERGDAVCTESGWRPLPSCEEKSCDNPYIPNGDYSPLRIKHRTGDEITYQCRNGFYPATRGNTAKCTSTGWIPAPRCTLKPCDYPDIKHGGLYHENMRRPYFPVAVGKYYSYYCDEHFETPSGSYWDHIHCTQDGWSPAVPCLRKCYFPYLENGYNQNYGRKFVQGKSIDVACHPGYALPKAQTTVTCMENGWSPTPRCIRVKTCSKSSIDIENGFISESQYTYALKEKAKYQCKLGYVTADGETSGSITCGKDGWSAQPTCIKSCDIPVFMNARTKNDFTWFKLNDTLDYECHDGYESNTGSTTGSIVCGYNGWSDLPICYERECELPKIDVHLVPDRKKDQYKVGEVLKFSCKPGFTIVGPNSVQCYHFGLSPDLPICKEQVQSCGPPPELLNGNVKEKTKEEYGHSEVVEYYCNPRFLMKGPNKIQCVDGEWTTLPVCIVEESTCGDIPELEHGWAQLSSPPYYYGDSVEFNCSESFTMIGHRSITCIHGVWTQLPQCVAIDKLKKCKSSNLIILEEHLKNKKEFDHNSNIRYRCRGKEGWIHTVCINGRWDPEVNCSMAQIQLCPPPPQIPNSHNMTTTLNYRDGEKVSVLCQENYLIQEGEEITCKDGRWQSIPLCVEKIPCSQPPQIEHGTINSSRSSQESYAHGTKLSYTCEGGFRISEENETTCYMGKWSSPPQCEGLPCKSPPEISHGVVAHMSDSYQYGEEVTYKCFEGFGIDGPAIAKCLGEKWSHPPSCIKTDCLSLPSFENAIPMGEKKDVYKAGEQVTYTCATYYKMDGASNVTCINSRWTGRPTCRDTSCVNPPTVQNAYIVSRQMSKYPSGERVRYQCRSPYEMFGDEEVMCLNGNWTEPPQCKDSTGKCGPPPPIDNGDITSFPLSVYAPASSVEYQCQNLYQLEGNKRITCRNGQWSEPPKCLHPCVISREIMENYNIALRWTAKQKLYSRTGESVEFVCKRGYRLSSRSHTLRTTCWDGKLEYPTCAKR
# partner: B1 partner
# Variants of: B1
# Conditions: with crp_human CRP
row,Variant,effect of a mutation on the interaction
1,E284K,increasing interaction strength

# Variants of: B1
# Conditions: with crp_human CRP
# Remark: another data set of the same source
row,Variant,effect of a mutation on the interaction
1,K37E,decreasing interaction strength

# Variants of: B2
# Conditions: with crp_human CRP
row,Variant,effect of a mutation on the interaction
1,E338K,disrupting interaction strength
